Data: publication PMC7431413 (2020)
Each block holds one binder with its values, some of them ahead of it.

B2: core fragment (CF) of STAT3, biotinylated (domain or fragment)
chain: GQANHPTAAVVTEKQQMLEQHLQDVRKRVQDLEQKMKVVENLQDDFDFNYKTLKSQGDMQDLNGNNQSVTRQKMQQLEQMLTALDQMRRSIVSELAGLLSAMEYVQKTLTDEELADWKRRQQIACIGGPPNICLDRLENWITSLAESQLQTRQQIKKLEELQQKVSYKGDPIVQHRPMLEERIVELFRNLMKSAFVVERQPCMPMHPDRPLVIKTGVQFTTKVRLLVKFPELNYQLKIKVCIDKDSGDVAALRGSRKFNILGTNTKVMNMEESNNGSLSAEFKHLTLREQRCGNGGRANCDASLIVTEELHLITFETEVYHQGLKIDLETHSLPVVVISNICQMPNAWASILWYNMLTNNPKNVNFFTKPPIGTWDQVAEVLSWQFSSTTKRGLSIEQLTTLAEKLLGPGVNYSGCQITWAKFCKENMAGKGFSFWVWLDNIIDLVKKYILALWNEGYIMGFISKERERAILSTKPPGTFLLRFSESSKEGGVTFTWVEKDISGKTQIQSVEPYTKQQLNNMSFAEIIMGYKIMDATNILVSPLVYLYPDIPKEEAFGKYCRPESQEHPEADPGSAAPYLKTKFICVTPTTCSNTI
modifications: biotin on the Avi-tag

Columns and labels:
Experiment in all cases: FACS; yeast display
MS3-N7 = target: MS3-N7
MS3-N5 = target: MS3-N5
MS3-N1 = target: MS3-N1
MS3-1 = target: MS3-1
MS3-2 = target: MS3-2
MS3-8 = target: MS3-8
MS3-5 = target: MS3-5
MS3-7 = target: MS3-7
MS3-4 = target: MS3-4
[1] = target: B2

- Kd (MS3-N7): 38 nM
- Kd (MS3-N5): 39 nM
- Kd (MS3-N1): 65 nM
B1: N-terminal domain of STAT3, biotinylated (domain or fragment)
chain: QWNQLQQLDTRYLEQLHQLYSDSFPMELRQFLAPWIESQDWAYAASKESHATLVFHNLLGEIDQQYSRFLQESNVLYQHNLRRIKQFLQSRYLEKPMEIARIVARCLWEESRLLQTAATAAQQGGQANHPTAAVVT
modifications: biotin on the Avi-tag

Binder: B2
- Kd (MS3-1): 127 nM
- Kd (MS3-2): 104 nM
- Kd (MS3-8): 235 nM
- Kd (MS3-5): 88 nM
- Kd (MS3-7): 135 nM
- Kd (MS3-4): 18 nM

- Kd [1]: 8 nM
B3: monobody MS3-6, displayed on yeast cells (designed binder)
chain: VSSVPTKLEVVAATPTSLLISWDAPAVTVDFYHITYGETGGNSPVQEFTVPGSKSTATISGLKPGVDYTITVYAYVSYPEYYFPSPISINYRT
